According to publication PMC10936776, “Structural and functional characterization of AfsR, an SARP family transcriptional activator of antibiotic biosynthesis in Streptomyces” (PLOS Biology, 2024):
Where a chain is given by its changes, count along the chain named. Names may count otherwise.

B1: Streptomyces coelicolor RNA polymerase α subunit (natural protein, S. coelicolor)
chain: MLIAQRPSLTEEVVDEFRSRFVIEPLEPGFGYTLGNSLRRTLLSSIPGAAVTSIRIDGVLHEFTTVPGVKEDVTDLILNIKQLVVSSEHDEPVVMYLRKQGPGLVTAADIAPPAGVEVHNPDLVLATLNGKGKLEMELTVERGRGYVSAVQNKQVGQEIGRIPVDSIYSPVLKVTYKVEATRVEQRTDFDKLIVDVETKQAMRPRDAMASAGKTLVELFGLARELNIDAEGIDMGPSPTDAALAADLALPIEELELTVRSYNCLKREGIHSVGELVARSEADLLDIRNFGAKSIDEVKAKLAGMGLALKDSPPGFDPTAAADAFGADDDADAGFVETEQY
notes: RNA polymerase subunit alpha, S. coelicolor; Stood in the assay as a subunit of the RNAP core in the holoenzyme; density for one αCTD is seen; also called αCTD (C-terminal domain of the α subunit); source: S. coelicolor RNAP purified as described previously [37]
B2: AfsR (dephosphorylated AfsR) (Streptomyces coelicolor A3(2)) (protein)
chain: MDGGPRVPEQRRPGFPAEEEESGALRFGVLGPVRAWRDGETLATGSPQQRALLAALLLREGRTATAGELIDALWGEEPPSQALAAVRTYASRLRKVLDPGVLVSESGGYAVRGLAEGALDLARAQDLASAAEKARSAGDLCHARDLLRRALDLWDGEVLAGVPGPYAQTQRVRLGEWRLQLLETRLDMDLDQGCHAEAVSELTALTAAHPLRERLRELLMLALYRSGRQAEALAVYADTRRLLADELGVDPRPGLQELQQRILQADPALAELSAATAETATATLRPAQLPATVSDFTGRAAFVRELSDVLSAASGESASGRVMAVSALAGIGGVGKTTLAVHVAHRARAAFPDGQLYVDLQGAGARPAEPETVLGSFLRALGTADSAIPDSLEERAALYRSVLDGRRVLVLLDNARDAAQVRPLLPGTDGCAALVTARVRMVDLAGAHLVDLDVMAPEEALALFTKIVGEERVASERQAALDVVGACGFLPLAIRIAASRLAARRTWTVSVLAAKLADERRRLDELQAGDQAVEATFELGYGQLEPAQARAFRLLGLADGPDISLAAAAAVLDLPAQDTEDLLESLVDTSLLESAAPGRYRFHDLVRLYARACAERTERDGNAPSERGAALSRLLDFYLATAAGVYAIERPGDRLVDGLEPTEYPGLTFTEGSAALDWLYTEAAPLLACVRQSAGTARLRRAVDLLWAAKDLTESGANSHQYEATARAMCDATGSAADTRAEGRARTVLSDVLLVSGRIEHAEEEARLAMRLAGSAEDSAAVSWVANNRGLVCLHQRRYAEGKGLFHQAIAGFRATDNRAGEASALSNLSRAQLGMGNVAEAVDIARQGLAVYAELGRTMRLANGHFALGVALTRAGRHEEALGEFAEALDLFGDHRQRLWEGATNFRLAEVHLAAGRPSSAAQHAEQALALGCIGGDRMRGNVLALLGRALSALGQADRARACWREALSLYEQHDAQEVGEVRALLARSVAR
notes: full-length, 993 residues, pET28a (His-tagged), E. coli BL21(DE3), Ni-NTA and SEC; wild type treated with lambda phosphatase (E. coli protein carries pT337); mainly monomer
B3: phosphorylated AfsR (phos-AfsR) (Streptomyces coelicolor A3(2)) (protein)
chain: B2 chain
notes: full-length, 993 residues, pET28a (His-tagged), E. coli BL21(DE3); dephosphorylated, then phosphorylated in vitro by AfsKΔC (pS22, pT337, pS391, pT506, pS953 by MS), SEC
B4: AfsR T337A mutant (natural protein, S. coelicolor, UniProt P25941 1-993, looked up)
chain: B2 chain with T337A
notes: AfsR, S. coelicolor, full-length protein with T337A; Preincubated with afsS promoter DNA and 1 mM ATPγS for AfsR-TIC; Vector and host of the mutant are surmised from the wild type
B5: AfsR 4E mutant (S391E/T337E/T506E/S953E) (natural protein, S. coelicolor, UniProt P25941 1-993, looked up)
chain: B2 chain with T337E, S391E, T506E, S953E
notes: AfsR, S. coelicolor, with glutamate substitutions at all 4 phosphorylation sites of NOD and TPR; Likely made like wild-type AfsR (pET28a, E. coli BL21(DE3))
B6: Streptomyces coelicolor RNA polymerase sigma factor σ^HrdB (natural protein, S. coelicolor)
chain: MSASTSRTLPPEIAESVSVMALIERGKAEGQIAGDDVRRAFEADQIPATQWKNVLRSLNQILEEEGVTLMVSAAEPKRTRKSVAAKSPAKRTATKAVAAKPVTSRKATAPAAPAAPATEPAAVEEEAPAKKAAAKKTTAKKATAKKTTAKKAAAKKTTAKKEDGELLEDEATEEPKAATEEPEGTENAGFVLSDEDEDDAPAQQVAAAGATADPVKDYLKQIGKVPLLNAEQEVELAKRIEAGLFAEDKLANSDKLAPKLKRELEIIAEDGRRAKNHLLEANLRLVVSLAKRYTGRGMLFLDLIQEGNLGLIRAVEKFDYTKGYKFSTYATWWIRQAITRAMADQARTIRIPVHMVEVINKLARVQRQMLQDLGREPTPEELAKELDMTPEKVIEVQKYGREPISLHTPLGEDGDSEFGDLIEDSEAVVPADAVSFTLLQEQLHSVLDTLSEREAGVVSMRFGLTDGQPKTLDEIGKVYGVTRERIRQIESKTMSKLRHPSRSQVLRDYLD
notes: principal sigma factor HrdB, S. coelicolor; region 1.1 disordered in the map; Stood in the assay as part of the RNAP σ^HrdB-holoenzyme; also called σ subunit; σ R4 (region 4); source: purified as described previously [37]

Legend:
[1] = target: T1, AfsR (dephosphorylated AfsR) (Streptomyces coelicolor, UniProt P25941); test: in vitro MangoIII transcription assay after preincubation; format: biochemical; conditions: 500 nM dephosphorylated AfsR, 1 mM GTP preincubation 10 min 30 °C, RNAP-σHrdB, RbpA, CarD; activator
T1 construct: full-length, 993 residues, pET28a (His-tagged), E. coli BL21(DE3), Ni-NTA and SEC; wild type treated with lambda phosphatase (E. coli protein carries pT337); mainly monomer

AfsR T337A mutant = target: B4; test: cryo-EM structure; AfsR_(T337A)-TIC: 32 uM AfsR_(T337A) preincubated with 5 uM afsS promoter DNA and 1 mM ATPγS, mixed with RNAP core, σ^HrdB, CarD, RbpA; assembling buffer; Superose 6; nominal resolution 3.63 Å, SARP region 5.10 Å; conditions: both partners purified
[2] = substrate: Nc1ncnc2c1ncn2[C@@H]1O[C@H](COP(=O)(O)OP(=O)(O)OP(=O)(O)O)[C@@H](O)[C@H]1O; test: Malachite green phosphate ATPase assay; format: biochemical, Streptomyces coelicolor; conditions: 5 μM protein, 20 mM Tris-HCl pH 7.5, 150 mM NaCl, 5 mM MgCl2, 30 min
[3] = target: T2, Streptomyces coelicolor RNA polymerase β subunit (S. coelicolor, UniProt Q9L0L0 1-1161); test: cryo-EM structure; AfsR_(T337A)-TIC: 32 uM AfsR_(T337A) preincubated with 5 uM afsS promoter DNA and 1 mM ATPγS, mixed with RNAP core, σ^HrdB, CarD, RbpA; assembling buffer; Superose 6; nominal resolution 3.63 Å, SARP region 5.10 Å; conditions: both partners purified
T2 construct: RNA polymerase subunit beta, S. coelicolor; Stood in the assay as a subunit of the RNAP core in the holoenzyme; also called RNAP β; β flap; source: S. coelicolor RNAP purified as described previously [37]

[4] = target: T3, Streptomyces coelicolor RNA polymerase β′ subunit (S. coelicolor, UniProt Q8CJT1 1-1299); test: as above; conditions: both partners purified
T3 construct: RNA polymerase subunit beta', S. coelicolor; Stood in the assay as a subunit of the RNAP core in the holoenzyme; also called RNAP β′; β′ ZBD; source: S. coelicolor RNAP purified as described previously [37]

[5] = target: the molecule itself; test: as above
[6] = target: the molecule itself; test: SEC; Superdex 200; 20 mM Tris pH 8.0, 150 mM NaCl, 5% glycerol; protein alone, without DNA
[7] = phosphomimetic 4E mutant, phosphatase treatment not stated

For `Nc1nc2c(ncn2[C@@H]2O[C@H](COP(=O)(O)OP(=O)(O)OP(=O)(O)O)[C@@H](O)[C@H]2O)c(=O)[nH]1` [GTP], the transcription activation [1] was “preincubating dephosphorylated AfsR with ATP or GTP significantly enhances its transcription activation”.

B1: binds (AfsR T337A mutant).

With B2 the Km ([2]; dephosphorylated) was 1160 ± 231 µM and the kcat ([2]; dephosphorylated) was 0.0453 ± 0.00356 s⁻¹.

B3 was tested, and the Km ([2]; phosphorylated by AfsKΔC) was 767 ± 163 µM and the kcat ([2]; phosphorylated by AfsKΔC) was 0.070 ± 0.00515 s⁻¹.

B4: binds [3]; binds [4]; binds [5].

In the case of B5, the Km [2, 7] is reported as 995 ± 152 µM, the kcat [2, 7] is reported as 0.147 ± 0.00841 s⁻¹ and the binding result [6] is reported as “binds”.

B6: binds (AfsR T337A mutant).
